Values belong to the molecule of their own block, whether it stands above or below them.
How the values were obtained:
[1] = target: ADAM9 on human tumour cells (LS174T, HepG2, Calu-3, Colo205) (human) (UniProt Q13443); assay: flow cytometry on HepG2 cells, 0.976563 nM, negative control
[2] = target: ADAM9 on human tumour cells (LS174T, HepG2, Calu-3, Colo205) (human) (UniProt Q13443); assay: flow cytometry on LS174T cells, 0.015259 nM, negative control
[3] = target: ADAM9 on human tumour cells (LS174T, HepG2, Calu-3, Colo205) (human) (UniProt Q13443); assay: flow cytometry on LS174T cells, 3.906250 nM, negative control
[4] = target: ADAM9 on human tumour cells (LS174T, HepG2, Calu-3, Colo205) (human) (UniProt Q13443); assay: flow cytometry on LS174T cells, 0.976563 nM, negative control
[5] = target: ADAM9 on human tumour cells (LS174T, HepG2, Calu-3, Colo205) (human) (UniProt Q13443); assay: flow cytometry on HepG2 cells, 15.625 nM, negative control
[6] = target: ADAM9 on human tumour cells (LS174T, HepG2, Calu-3, Colo205) (human) (UniProt Q13443); assay: flow cytometry on LS174T cells, 0.061035 nM, negative control
[7] = target: ADAM9 on human tumour cells (LS174T, HepG2, Calu-3, Colo205) (human) (UniProt Q13443); assay: flow cytometry on LS174T cells, 1000 nM, negative control
[8] = target: ADAM9 on human tumour cells (LS174T, HepG2, Calu-3, Colo205) (human) (UniProt Q13443); assay: flow cytometry on HepG2 cells, 0.003815 nM, negative control
[9] = target: ADAM9 on human tumour cells (LS174T, HepG2, Calu-3, Colo205) (human) (UniProt Q13443); assay: flow cytometry on HepG2 cells, 250 nM, negative control
[10] = target: ADAM9 on human tumour cells (LS174T, HepG2, Calu-3, Colo205) (human) (UniProt Q13443); assay: flow cytometry on HepG2 cells, 0.015259 nM, negative control
[11] = target: ADAM9 on human tumour cells (LS174T, HepG2, Calu-3, Colo205) (human) (UniProt Q13443); assay: flow cytometry on LS174T cells, 62.5 nM, negative control
[12] = target: ADAM9 on human tumour cells (LS174T, HepG2, Calu-3, Colo205) (human) (UniProt Q13443); assay: flow cytometry on LS174T cells, 0.244141 nM, negative control
[13] = target: ADAM9 on human tumour cells (LS174T, HepG2, Calu-3, Colo205) (human) (UniProt Q13443); assay: flow cytometry on HepG2 cells, 0.000238 nM, negative control
[14] = target: ADAM9 on human tumour cells (LS174T, HepG2, Calu-3, Colo205) (human) (UniProt Q13443); assay: flow cytometry on HepG2 cells, 0.061035 nM, negative control
[15] = target: ADAM9 on human tumour cells (LS174T, HepG2, Calu-3, Colo205) (human) (UniProt Q13443); assay: flow cytometry on HepG2 cells, 3.906250 nM, negative control
[16] = target: ADAM9 on human tumour cells (LS174T, HepG2, Calu-3, Colo205) (human) (UniProt Q13443); assay: flow cytometry on LS174T cells, 15.625 nM, negative control
[17] = target: ADAM9 on human tumour cells (LS174T, HepG2, Calu-3, Colo205) (human) (UniProt Q13443); assay: flow cytometry on HepG2 cells, 0.000954 nM, negative control
[18] = target: ADAM9 on human tumour cells (LS174T, HepG2, Calu-3, Colo205) (human) (UniProt Q13443); assay: flow cytometry on HepG2 cells, 1000 nM, negative control
[19] = target: ADAM9 on human tumour cells (LS174T, HepG2, Calu-3, Colo205) (human) (UniProt Q13443); assay: flow cytometry on LS174T cells, 250 nM, negative control
[20] = target: ADAM9 on human tumour cells (LS174T, HepG2, Calu-3, Colo205) (human) (UniProt Q13443); assay: flow cytometry on LS174T cells, 0.000954 nM, negative control
[21] = target: ADAM9 on human tumour cells (LS174T, HepG2, Calu-3, Colo205) (human) (UniProt Q13443); assay: flow cytometry on HepG2 cells, 62.5 nM, negative control
[22] = target: ADAM9 on human tumour cells (LS174T, HepG2, Calu-3, Colo205) (human) (UniProt Q13443); assay: flow cytometry on LS174T cells, 0.003815 nM, negative control
[23] = target: ADAM9 on human tumour cells (LS174T, HepG2, Calu-3, Colo205) (human) (UniProt Q13443); assay: flow cytometry on HepG2 cells, 0.244141 nM, negative control
[24] = target: ADAM9 on human tumour cells (LS174T, HepG2, Calu-3, Colo205) (human) (UniProt Q13443); assay: flow cytometry on LS174T cells, 0.003815 nM
[25] = target: ADAM9 on human tumour cells (LS174T, HepG2, Calu-3, Colo205) (human) (UniProt Q13443); assay: flow cytometry on LS174T cells, 1000 nM
[26] = target: ADAM9 on human tumour cells (LS174T, HepG2, Calu-3, Colo205) (human) (UniProt Q13443); assay: flow cytometry on LS174T cells, 3.906250 nM
[27] = target: ADAM9 on human tumour cells (LS174T, HepG2, Calu-3, Colo205) (human) (UniProt Q13443); assay: flow cytometry on LS174T cells, 250 nM
[28] = target: ADAM9 on human tumour cells (LS174T, HepG2, Calu-3, Colo205) (human) (UniProt Q13443); assay: flow cytometry on LS174T cells, 62.5 nM
[29] = target: ADAM9 on human tumour cells (LS174T, HepG2, Calu-3, Colo205) (human) (UniProt Q13443); assay: flow cytometry on LS174T cells, 0.976563 nM
[30] = target: ADAM9 on human tumour cells (LS174T, HepG2, Calu-3, Colo205) (human) (UniProt Q13443); assay: flow cytometry on LS174T cells, 0.244141 nM
[31] = target: ADAM9 on human tumour cells (LS174T, HepG2, Calu-3, Colo205) (human) (UniProt Q13443); assay: flow cytometry on LS174T cells, 0.000954 nM
[32] = target: ADAM9 on human tumour cells (LS174T, HepG2, Calu-3, Colo205) (human) (UniProt Q13443); assay: flow cytometry on LS174T cells, 0.061035 nM
[33] = target: ADAM9 on human tumour cells (LS174T, HepG2, Calu-3, Colo205) (human) (UniProt Q13443); assay: flow cytometry on LS174T cells, 0.015259 nM
[34] = target: ADAM9 on human tumour cells (LS174T, HepG2, Calu-3, Colo205) (human) (UniProt Q13443); assay: flow cytometry on LS174T cells, 15.625 nM
[35] = target: ADAM9 on human tumour cells (LS174T, HepG2, Calu-3, Colo205) (human) (UniProt Q13443); assay: cell-based or functional assay
[36] = target: ADAM9 on human tumour cells (LS174T, HepG2, Calu-3, Colo205) (human) (UniProt Q13443); assay: flow cytometry on HepG2 cells, 250 nM
[37] = target: ADAM9 on human tumour cells (LS174T, HepG2, Calu-3, Colo205) (human) (UniProt Q13443); assay: flow cytometry on HepG2 cells, 1000 nM
[38] = target: ADAM9 on human tumour cells (LS174T, HepG2, Calu-3, Colo205) (human) (UniProt Q13443); assay: flow cytometry on HepG2 cells, 0.000954 nM
[39] = target: ADAM9 on human tumour cells (LS174T, HepG2, Calu-3, Colo205) (human) (UniProt Q13443); assay: flow cytometry on HepG2 cells, 0.015259 nM
[40] = target: ADAM9 on human tumour cells (LS174T, HepG2, Calu-3, Colo205) (human) (UniProt Q13443); assay: flow cytometry on HepG2 cells, 0.061035 nM
[41] = target: ADAM9 on human tumour cells (LS174T, HepG2, Calu-3, Colo205) (human) (UniProt Q13443); assay: flow cytometry on HepG2 cells, 62.5 nM
[42] = target: ADAM9 on human tumour cells (LS174T, HepG2, Calu-3, Colo205) (human) (UniProt Q13443); assay: flow cytometry on HepG2 cells, 0.000238 nM
[43] = target: ADAM9 on human tumour cells (LS174T, HepG2, Calu-3, Colo205) (human) (UniProt Q13443); assay: flow cytometry on HepG2 cells, 15.625 nM
[44] = target: ADAM9 on human tumour cells (LS174T, HepG2, Calu-3, Colo205) (human) (UniProt Q13443); assay: flow cytometry on HepG2 cells, 0.976563 nM
[45] = target: ADAM9 on human tumour cells (LS174T, HepG2, Calu-3, Colo205) (human) (UniProt Q13443); assay: flow cytometry on HepG2 cells, 0.003815 nM
[46] = target: ADAM9 on human tumour cells (LS174T, HepG2, Calu-3, Colo205) (human) (UniProt Q13443); assay: flow cytometry on HepG2 cells, 0.244141 nM
[47] = target: ADAM9 on human tumour cells (LS174T, HepG2, Calu-3, Colo205) (human) (UniProt Q13443); assay: flow cytometry on HepG2 cells, 3.906250 nM

Chain of ADAM9 on human tumour cells (LS174T, HepG2, Calu-3, Colo205) (human) (Q13443 29-819): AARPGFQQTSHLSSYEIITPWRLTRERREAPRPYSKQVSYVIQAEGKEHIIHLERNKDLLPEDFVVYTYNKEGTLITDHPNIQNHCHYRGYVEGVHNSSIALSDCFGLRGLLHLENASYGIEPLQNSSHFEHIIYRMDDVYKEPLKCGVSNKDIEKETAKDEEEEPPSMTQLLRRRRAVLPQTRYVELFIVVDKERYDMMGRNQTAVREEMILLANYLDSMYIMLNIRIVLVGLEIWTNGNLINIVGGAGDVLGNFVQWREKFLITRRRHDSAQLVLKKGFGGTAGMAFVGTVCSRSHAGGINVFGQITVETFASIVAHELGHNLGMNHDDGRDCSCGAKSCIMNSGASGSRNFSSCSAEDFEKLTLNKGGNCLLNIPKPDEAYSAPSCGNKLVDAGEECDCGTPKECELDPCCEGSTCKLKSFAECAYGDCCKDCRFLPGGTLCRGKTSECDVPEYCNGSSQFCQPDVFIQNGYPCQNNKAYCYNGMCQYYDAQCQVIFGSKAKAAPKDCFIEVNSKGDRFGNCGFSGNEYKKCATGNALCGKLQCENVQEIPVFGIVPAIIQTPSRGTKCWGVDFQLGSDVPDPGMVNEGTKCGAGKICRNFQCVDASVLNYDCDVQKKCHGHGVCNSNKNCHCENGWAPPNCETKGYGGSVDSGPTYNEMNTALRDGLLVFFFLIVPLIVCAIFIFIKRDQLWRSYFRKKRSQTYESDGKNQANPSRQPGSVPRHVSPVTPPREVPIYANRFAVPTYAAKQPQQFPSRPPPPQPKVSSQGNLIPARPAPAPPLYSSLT

Mean fluorescence intensity (MFI) [1]: 360
Mean fluorescence intensity [2]: 213
Mean fluorescence intensity [3]: 203
Mean fluorescence intensity [4]: 212
Mean fluorescence intensity (MFI) [5]: 364
Mean fluorescence intensity [6]: 202
Mean fluorescence intensity [7]: 368
Mean fluorescence intensity (MFI) [8]: 349
Mean fluorescence intensity (MFI) [9]: 389
Mean fluorescence intensity (MFI) [10]: 371
Mean fluorescence intensity [11]: 229
Mean fluorescence intensity [12]: 208
Mean fluorescence intensity (MFI) [13]: 361
Mean fluorescence intensity (MFI) [14]: 377
Mean fluorescence intensity (MFI) [15]: 361
Mean fluorescence intensity [16]: 209
Mean fluorescence intensity (MFI) [17]: 365
Mean fluorescence intensity (MFI) [18]: 690
Mean fluorescence intensity [19]: 269
Mean fluorescence intensity [20]: 220
Mean fluorescence intensity (MFI) [21]: 386
Mean fluorescence intensity [22]: 254
Mean fluorescence intensity (MFI) [23]: 363
Molecule: anti-HIV human IgG antibody (iso-IgG1, produced by WuXi AppTec)

Mean fluorescence intensity [24]: 219
Mean fluorescence intensity [25]: 1130
Mean fluorescence intensity [26]: 2380
Mean fluorescence intensity [27]: 2130
Mean fluorescence intensity [28]: 2160
Mean fluorescence intensity [29]: 1960
Mean fluorescence intensity [30]: 954
Mean fluorescence intensity [31]: 223
Mean fluorescence intensity [32]: 447
Mean fluorescence intensity [33]: 268
Mean fluorescence intensity [34]: 2400
IC50 (nM) of proliferation inhibition, Calu-3 cells, CellTiter-Glo, 6 days [35]: 3.83 nM
IC50 (nM) of proliferation inhibition, Colo205 cells, CellTiter-Glo, 6 days [35]: 29.8 nM
IC50 (nM) of proliferation inhibition, LS174T cells, CellTiter-Glo, 6 days [35]: 8.97 nM
B1: antibody-drug conjugate Ab16-X2 (antibody, human IgG1, kappa, V domains shown)
VH: QVQLQQPGTEVVKPGASVKLSCKASGFTFPLYWMHWVRQRPGRGLEWIGRIIPIFGHTKYNEKFKNKATLTADESSSTAYMELRSLTSDDSAVYYCARGGYYYYPREGFLDYWGQGTSVTVSS
VL: DIVMTQSPASLSVSPGERASISCRSSQSVDYSGDSYMNWYQQKPGQSPRLLIYAASDRESGVPDRFSGSGSGTDFTLKISRVEEEDAGTYYCQQSREDPFTFGQGTKVDIKR
modifications: linker-payload X2 (camptothecin type) conjugated after reduction with tris(2-carboxyethyl)phosphine; DAR p = 7.9; sites not given

Mean fluorescence intensity (MFI) [36]: 16600
Mean fluorescence intensity (MFI) [37]: 17400
Mean fluorescence intensity (MFI) [38]: 376
Mean fluorescence intensity (MFI) [39]: 451
Mean fluorescence intensity (MFI) [40]: 623
Mean fluorescence intensity (MFI) [41]: 3290
Mean fluorescence intensity (MFI) [42]: 370
Mean fluorescence intensity (MFI) [43]: 2960
Mean fluorescence intensity (MFI) [44]: 1790
Mean fluorescence intensity (MFI) [45]: 396
Mean fluorescence intensity (MFI) [46]: 1090
IC50 (nM) of proliferation inhibition, Calu-3 cells, CellTiter-Glo, 6 days [35]: 8.6 nM
Mean fluorescence intensity (MFI) [47]: 1780
B2: antibody-drug conjugate Ab16-X1 (antibody, human IgG1, kappa, V domains shown)
VH: QVQLQQPGTEVVKPGASVKLSCKASGFTFPLYWMHWVRQRPGRGLEWIGRIIPIFGHTKYNEKFKNKATLTADESSSTAYMELRSLTSDDSAVYYCARGGYYYYPREGFLDYWGQGTSVTVSS
VL: DIVMTQSPASLSVSPGERASISCRSSQSVDYSGDSYMNWYQQKPGQSPRLLIYAASDRESGVPDRFSGSGSGTDFTLKISRVEEEDAGTYYCQQSREDPFTFGQGTKVDIKR
modifications: linker-payload X1 (camptothecin type) conjugated after reduction with tris(2-carboxyethyl)phosphine; DAR p = 7.8; sites not given
